Data from article PMC4857615.

Test system: Nc1ncnc2c1ncn2[C@@H]1O[C@H](COP(=O)(O)OP(=O)(O)OP(=O)(O)O)[C@@H](O)[C@H]1O
Experiment: purified protein
Conditions: co-substrate acetate, MgCl2 6.6 mM, HEPES 84 mM, 40 °C

| Substance | Km [µM] | kcat [s⁻¹] | kcat/Km [M⁻¹ s⁻¹] |
| --- | --- | --- | --- |
| EutP (Salmonella enterica subsp. enterica serovar Typhimurium str. LT2) | 500 ± 200 | 657 | 1.31e+06 ± 377000 |
| EutQ (Salmonella enterica subsp. enterica serovar Typhimurium str. LT2) | 500 ± 100 | 434 | 868000 ± 145000 |
